What all share (assay): SPR (Biacore), antibody captured, FcgR as analyte
On the technique in general: SPR reads the build-up and loss of mass on a sensor chip optically.

One assay has as its target T1, FcgRIIa R (human, UniProt P12318 34-217).
T1 construct: extracellular domain; also called FcγRIIa R; FcγRIIa type R
T1 sequence (looked up): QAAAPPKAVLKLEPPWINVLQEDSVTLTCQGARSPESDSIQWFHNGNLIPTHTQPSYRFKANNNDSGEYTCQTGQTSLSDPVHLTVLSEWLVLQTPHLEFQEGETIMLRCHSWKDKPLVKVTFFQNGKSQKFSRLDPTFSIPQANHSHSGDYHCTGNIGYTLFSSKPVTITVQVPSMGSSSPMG
The protocol:
(§1) H240-Kn113 (SEQ ID NO: 92) resulting from introduction of Y234E and Y235N into H240-Kn072, H240-Kn115 (SEQ ID NO: 93) resulting from introduction of S239M into H240-Kn072, and H240-Kn125 (SEQ ID NO: 94) resulting from introduction of Y235Q and S239M into H240-Kn072 were prepared according to the method described in Reference Example 1. H240-Kn113/H240-Hl076/L73-k0, H240-Kn115/H240-Hl076/L73-k0, and H240-Kn125/H240-Hl076/L73-k0 were prepared by combining H240-Hl076 as an H chain, L73-k0 as the L chain, and H240-Kn113, H240-Kn115, and H240-Kn125 as the other H chain according to the method described in Reference Example 1.
(§2) Analysis of interaction between objective antibody and the FcγR was carried out using Biacore T100 (GE Healthcare), Biacore T200, Biacore A100, and Biacore 4000. HBS-EP+ (GE Healthcare) was used as the running buffer, and the measurement temperature was set to 25° C. Chips produced by immobilizing the antigen peptide by the amine coupling method to a Series S sensor Chip CM5 (GE Healthcare), chips produced by allowing preliminarily biotinylated antigen peptides to interact with and immobilize onto a Series S Sensor Chip SA (certified) (GE Healthcare), chips produced by immobilizing Protein L (ACTIGEN, BioVision) to Series S Sencor Chip CM5 (GE Healthcare), or chips produced by immobilizing Protein A/G (Thermo Scientific) to Series S Sencor Chip CM5 (GE Healthcare) were used. Antibodies of interest were captured onto these chips, and allowed to interact to each FcγR diluted with running buffer. To regenerate and repeatedly use the chip, the antibodies captured onto the chip were washed off by reacting 10 mM glycine-HCl, pH 1.5.

In another assay the target is T2, FcgRIIIa V (human, UniProt P08637 17-208).
T2 construct: extracellular domain; polymorphic site made after J. Clin. Invest; also called FcγRIIIa V
T2 sequence (P08637 17-208 F176V limits assumed): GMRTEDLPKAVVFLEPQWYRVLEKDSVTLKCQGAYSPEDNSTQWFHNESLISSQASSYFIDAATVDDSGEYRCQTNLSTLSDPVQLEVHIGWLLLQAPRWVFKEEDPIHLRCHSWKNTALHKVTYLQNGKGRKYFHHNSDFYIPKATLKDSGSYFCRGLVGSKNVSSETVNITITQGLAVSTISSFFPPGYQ
As for the experimental part:
as §1, §2

In the next assay the target is T3, FcgRIa (human, UniProt P12314 16-292).
T3 construct: extracellular domain; also called FcγRIa; FcγRI
T3 sequence (P12314 16-292): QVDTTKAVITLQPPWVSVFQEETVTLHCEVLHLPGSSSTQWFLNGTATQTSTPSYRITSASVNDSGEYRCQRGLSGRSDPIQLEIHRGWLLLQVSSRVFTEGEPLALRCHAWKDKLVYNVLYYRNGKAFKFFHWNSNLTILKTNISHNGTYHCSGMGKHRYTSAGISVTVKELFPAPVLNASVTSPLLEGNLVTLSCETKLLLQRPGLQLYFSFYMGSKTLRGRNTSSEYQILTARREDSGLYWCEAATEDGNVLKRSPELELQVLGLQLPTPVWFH
As for the experimental part:
as §1, §2

For the next assay, the target named is T4, FcgRIIb (human, UniProt P31994 43-217).
T4 construct: extracellular domain; also called FcγRIIb; CD32B
T4 sequence (looked up): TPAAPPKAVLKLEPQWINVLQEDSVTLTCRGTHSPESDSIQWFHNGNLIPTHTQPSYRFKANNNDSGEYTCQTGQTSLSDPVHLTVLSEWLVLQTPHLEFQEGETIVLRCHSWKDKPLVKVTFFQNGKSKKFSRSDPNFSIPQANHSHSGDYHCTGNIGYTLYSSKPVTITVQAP
As for the experimental part:
as §1, §2

Another assay concerns the target T5, FcgRIIIa F (human, UniProt P08637 17-208).
T5 construct: extracellular domain; polymorphic site made after J. Clin. Invest; also called FcγRIIIa F
The protocol:
as §1, §2

For the next assay, the target named is T6, FcgRIIa H (human, UniProt P12318 34-217).
T6 construct: extracellular domain; also called FcγRIIa H; FcγRIIa type H
T6 sequence (looked up): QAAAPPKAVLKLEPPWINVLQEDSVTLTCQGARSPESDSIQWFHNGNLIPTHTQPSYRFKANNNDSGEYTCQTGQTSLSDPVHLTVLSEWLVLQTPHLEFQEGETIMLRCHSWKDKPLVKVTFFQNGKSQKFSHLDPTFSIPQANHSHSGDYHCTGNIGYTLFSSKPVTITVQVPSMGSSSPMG
The protocol:
as §1, §2

As usually defined, the Kd is the free concentration of one partner at which half of the binding sites on the other are occupied at equilibrium, for simple one-to-one binding. A higher Kd goes with lower affinity.

T5 sequence (P08637 17-208): as the sequence (P08637 17-208 F176V limits assumed) above, with V160F counted along it

B1: H240-Kn113/H240-Hl076/L73-k0 (antibody, human IgG1, kappa)
heavy 1: QDQLVQSGAEVKKPGASVKVSCKASGFNIKDTYIQWVRQAPGQGLEWMGRIDPLRKQTKYREKFEGRVTITADTSTNTAYMELSSLRSEDTAVYYCVRSGREFDYWGQGTLVTVSSASTKGPSVFPLAPSSKSTSGGTAALGCLVKDYFPEPVTVSWNSGALTSGVHTFPAVLQSSGLYSLSSVVTVPSSSLGTQTYICNVNHKPSNTKVDKKVEPKSCDKTHTCPPCPAPEENWGPSVFLFPPKPKDTLMISRTPEVTCVVVDVSDEEPEVKFNWYVDGVEVHNAKTKPREEQYNATYRVVSVLTVLHQDWLNGKEYKCKVSNKALPAPIEKTISKAKGQPREPQVCTLPPSRDELTKNQVSLWCLVKGFYPSDIAVEWESNGQPENNYKTTPPVLDSDGSFFLYSKLTVDKSRWQQGNVFSCSVMHEALHNHYTQKSLSLSP
heavy 2: QDQLVQSGAEVKKPGASVKVSCKASGFNIKDTYIQWVRQAPGQGLEWMGRIDPLRKQTKYREKFEGRVTITADTSTNTAYMELSSLRSEDTAVYYCVRSGREFDYWGQGTLVTVSSASTKGPSVFPLAPSSKSTSGGTAALGCLVKDYFPEPVTVSWNSGALTSGVHTFPAVLQSSGLYSLSSVVTVPSSSLGTQTYICNVNHKPSNTKVDKKVEPKSCDKTHTCPPCPAPELLGGPSVFLFPPKPKDTLMISRTPEVTCVVVDVSHEEPEVKFNWYVDGVEVHNAKTKPREEQYNSTYRVVSVLTVLHQDWLNGKEYKCKVSNDALPMPIEETISKAKGQPREPQVYTLPPSRCELTKNQVSLSCAVKGFYPSDIAVEWESNGQPENNYKTTPPVLDSDGSFFLVSKLTVDKSRWQQGNVFSCSVMHEALHNHYTQKSLSLSP
light: DIQMTQSPSSLSASVGDRVTITCRASQDIHKYIAWYQQKPGQAPRLLIQYTSTLQPGVPSRFSGSGSGTDYTFTISSLQPEDIATYYCLQYEQLRTFGGGTKVEIKRTVAAPSVFIFPPSDEQLKSGTASVVCLLNNFYPREAKVQWKVDNALQSGNSQESVTEQDSKDSTYSLSSTLTLSKADYEKHKVYACEVTHQGLSSPVTKSFNRGEC
notes: H240-Kn113: Y234E and Y235N introduced into H240-Kn072
Consider B1, for which the Kd in the assay with FcgRIIa R was 0.6 µM; in the assay with FcgRIIIa V it was 0.00062 µM; with FcgRIa, 0.00021 µM; with FcgRIIb, 5 µM; with FcgRIIIa F it was 0.0017 µM; with FcgRIIa H, 0.35 µM.

B2: H240-Kn115/H240-Hl076/L73-k0 (antibody, human IgG1, kappa)
heavy 1: QDQLVQSGAEVKKPGASVKVSCKASGFNIKDTYIQWVRQAPGQGLEWMGRIDPLRKQTKYREKFEGRVTITADTSTNTAYMELSSLRSEDTAVYYCVRSGREFDYWGQGTLVTVSSASTKGPSVFPLAPSSKSTSGGTAALGCLVKDYFPEPVTVSWNSGALTSGVHTFPAVLQSSGLYSLSSVVTVPSSSLGTQTYICNVNHKPSNTKVDKKVEPKSCDKTHTCPPCPAPEYYWGPMVFLFPPKPKDTLMISRTPEVTCVVVDVSDEEPEVKFNWYVDGVEVHNAKTKPREEQYNATYRVVSVLTVLHQDWLNGKEYKCKVSNKALPAPIEKTISKAKGQPREPQVCTLPPSRDELTKNQVSLWCLVKGFYPSDIAVEWESNGQPENNYKTTPPVLDSDGSFFLYSKLTVDKSRWQQGNVFSCSVMHEALHNHYTQKSLSLSP
heavy 2: QDQLVQSGAEVKKPGASVKVSCKASGFNIKDTYIQWVRQAPGQGLEWMGRIDPLRKQTKYREKFEGRVTITADTSTNTAYMELSSLRSEDTAVYYCVRSGREFDYWGQGTLVTVSSASTKGPSVFPLAPSSKSTSGGTAALGCLVKDYFPEPVTVSWNSGALTSGVHTFPAVLQSSGLYSLSSVVTVPSSSLGTQTYICNVNHKPSNTKVDKKVEPKSCDKTHTCPPCPAPELLGGPSVFLFPPKPKDTLMISRTPEVTCVVVDVSHEEPEVKFNWYVDGVEVHNAKTKPREEQYNSTYRVVSVLTVLHQDWLNGKEYKCKVSNDALPMPIEETISKAKGQPREPQVYTLPPSRCELTKNQVSLSCAVKGFYPSDIAVEWESNGQPENNYKTTPPVLDSDGSFFLVSKLTVDKSRWQQGNVFSCSVMHEALHNHYTQKSLSLSP
light: DIQMTQSPSSLSASVGDRVTITCRASQDIHKYIAWYQQKPGQAPRLLIQYTSTLQPGVPSRFSGSGSGTDYTFTISSLQPEDIATYYCLQYEQLRTFGGGTKVEIKRTVAAPSVFIFPPSDEQLKSGTASVVCLLNNFYPREAKVQWKVDNALQSGNSQESVTEQDSKDSTYSLSSTLTLSKADYEKHKVYACEVTHQGLSSPVTKSFNRGEC
notes: H240-Kn115: S239M introduced into H240-Kn072
On to B2, for which the Kd worked out at 0.13 µM in the assay with FcgRIIa R; 0.00043 µM in the assay with FcgRIIIa V; 0.00027 µM in the assay with FcgRIa; 1.3 µM with FcgRIIb; 0.0014 µM with FcgRIIIa F; 0.062 µM with FcgRIIa H.

B3: H240-Kn125/H240-Hl076/L73-k0 (antibody, human IgG1, kappa)
heavy 1: QDQLVQSGAEVKKPGASVKVSCKASGFNIKDTYIQWVRQAPGQGLEWMGRIDPLRKQTKYREKFEGRVTITADTSTNTAYMELSSLRSEDTAVYYCVRSGREFDYWGQGTLVTVSSASTKGPSVFPLAPSSKSTSGGTAALGCLVKDYFPEPVTVSWNSGALTSGVHTFPAVLQSSGLYSLSSVVTVPSSSLGTQTYICNVNHKPSNTKVDKKVEPKSCDKTHTCPPCPAPEYQWGPMVFLFPPKPKDTLMISRTPEVTCVVVDVSDEEPEVKFNWYVDGVEVHNAKTKPREEQYNATYRVVSVLTVLHQDWLNGKEYKCKVSNKALPAPIEKTISKAKGQPREPQVCTLPPSRDELTKNQVSLWCLVKGFYPSDIAVEWESNGQPENNYKTTPPVLDSDGSFFLYSKLTVDKSRWQQGNVFSCSVMHEALHNHYTQKSLSLSP
heavy 2: QDQLVQSGAEVKKPGASVKVSCKASGFNIKDTYIQWVRQAPGQGLEWMGRIDPLRKQTKYREKFEGRVTITADTSTNTAYMELSSLRSEDTAVYYCVRSGREFDYWGQGTLVTVSSASTKGPSVFPLAPSSKSTSGGTAALGCLVKDYFPEPVTVSWNSGALTSGVHTFPAVLQSSGLYSLSSVVTVPSSSLGTQTYICNVNHKPSNTKVDKKVEPKSCDKTHTCPPCPAPELLGGPSVFLFPPKPKDTLMISRTPEVTCVVVDVSHEEPEVKFNWYVDGVEVHNAKTKPREEQYNSTYRVVSVLTVLHQDWLNGKEYKCKVSNDALPMPIEETISKAKGQPREPQVYTLPPSRCELTKNQVSLSCAVKGFYPSDIAVEWESNGQPENNYKTTPPVLDSDGSFFLVSKLTVDKSRWQQGNVFSCSVMHEALHNHYTQKSLSLSP
light: DIQMTQSPSSLSASVGDRVTITCRASQDIHKYIAWYQQKPGQAPRLLIQYTSTLQPGVPSRFSGSGSGTDYTFTISSLQPEDIATYYCLQYEQLRTFGGGTKVEIKRTVAAPSVFIFPPSDEQLKSGTASVVCLLNNFYPREAKVQWKVDNALQSGNSQESVTEQDSKDSTYSLSSTLTLSKADYEKHKVYACEVTHQGLSSPVTKSFNRGEC
notes: H240-Kn125: Y235Q and S239M introduced into H240-Kn072
On to B3, for which the Kd amounted to 0.38 µM in the assay with FcgRIIa R; 0.00037 µM in the assay with FcgRIIIa V; 0.00024 µM with FcgRIa; 4.2 µM with FcgRIIb; 0.0012 µM in the assay with FcgRIIIa F; 0.19 µM with FcgRIIa H.

Values taken from US20150344570A1 (published 2015).
